From the supplement of paper PMC7877785
± gives the uncertainty stated by the source.

Experiment: self-splicing fitness, log relative to wild type (ln ratio); higher = more splicing; Tetrahymena group I intron in knt gene, E. coli kanamycin selection, DiMSum; sequences stand for … in CUCUCU…GGAGGGAAAAGUUAUCAGGCAUGCACCUGGUAGCUAGUCUUUAAACCAAUAGAUUGCAUCGGUUUAAAAGGCAAGACCGUCAAAUUGCGGGAAAGGGGUCAACAGCCGUUCAGUACCAAGUCUCAGGGGAAACUUUGAGAUGGCCUUGCAAAGGGUAUGGUAAUAAGCUGACGGACAUGGUCCUAACCACGCAGCCAAGUCCUAAGUCAACAGAUCUUCUGUUGAUAUGGAUGCAGUUCACAGACUAAAUGUCGGUCGGGGAAGAUGUAUUCUUCUCAUAAGAUAUAGUCGGACCUCUCCUUAAUGGGAGCUAGCGGAUGAAGUGAUGCAACACUGGAGCCGCUGGGAACUAAUUUGUAUGCGAAAGUAUAUUGAUUAGUUUUGGAGUACUCGUGGUCG
Summary of the method: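 Six replicate transformations of E. coli BL21(DE3) with a pET-22b(+) library were grown overnight at 37°C or 30°C. The library randomised all eight P1ex-region intron nucleotides, the intron lying in the knt kanamycin-resistance gene, and plates were LB agar with or without 25 μg/mL kanamycin plus 100 μg/mL carbenicillin, 50 μM IPTG and 0.2% rhamnose. Pooled colonies were amplicon-sequenced on an Illumina HiSeq 2500, and fitness is the DiMSum error-weighted combination of wild-type-normalised replicate fold changes, kanamycin versus none.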

| Sequence | self-splicing fitness (ln) (30 °C) | self-splicing fitness (ln) (37 °C) |
| --- | --- | --- |
| UUGAAGCAAUAUUACGGUCU | -0.0588 ± 0.058 | -0.0885 ± 0.075 |
| UUGAAGCAAUAUUACGGUGU | -3.13 ± 0.17 | -1.16 ± 0.15 |
| UUGAAGCAAUAUUACGUACC | -3.61 ± 0.41 | -1.07 ± 0.35 |
| UUGAAGCAAUAUUACGUAGA | -1.28 ± 0.12 | -0.894 ± 0.15 |
| UUGCAGCAAUAUUACGAACU | -2.25 ± 0.23 | -2.11 ± 0.22 |
| UUGCAGCAAUAUUACGAAUU | -2.18 ± 0.18 | -0.985 ± 0.19 |
| UUGCAGCAAUAUUACGACGA | 0.0944 ± 0.089 | 0.407 ± 0.12 |
| UUGCAGCAAUAUUACGAGUU | -4.24 ± 0.27 | -3.36 ± 0.37 |
| UUGCAGCAAUAUUACGAUAU | -4.06 ± 0.32 | -1.78 ± 0.24 |
| UUGCAGCAAUAUUACGAUCC | -3.64 ± 0.47 | -1.68 ± 0.35 |
| UUGCAGCAAUAUUACGCACA | -0.577 ± 0.11 | 0.406 ± 0.15 |
| UUGCAGCAAUAUUACGCACG | -1.2 ± 0.13 | -1.24 ± 0.12 |
| UUGCAGCAAUAUUACGCAUA | -1.6 ± 0.13 | -0.643 ± 0.12 |
| UUGCAGCAAUAUUACGCGCA | -1.84 ± 0.14 | -0.231 ± 0.18 |
| UUGCAGCAAUAUUACGCGCG | -1.88 ± 0.12 | -1.29 ± 0.14 |
| UUGCAGCAAUAUUACGCGGA | -1.29 ± 0.12 | -0.882 ± 0.13 |
| UUGCAGCAAUAUUACGCUAC | -0.542 ± 0.29 | – |
| UUGCAGCAAUAUUACGGAGC | -2.2 ± 0.15 | – |
| UUGCAGCAAUAUUACGGCAA | -3.02 ± 0.23 | -2.27 ± 0.24 |
| UUGCAGCAAUAUUACGGCGC | -1.8 ± 0.24 | -1.84 ± 0.31 |
| UUGCAGCAAUAUUACGUAGA | -1.46 ± 0.074 | -0.271 ± 0.079 |
| UUGCAGCAAUAUUACGUAUG | -1.8 ± 0.081 | -1.11 ± 0.12 |
| UUGCAGCAAUAUUACGUCGA | -0.56 ± 0.09 | 0.0432 ± 0.13 |
| UUGCAGCAAUAUUACGUGCG | -3.18 ± 0.16 | -1.43 ± 0.14 |
| UUGCAGCAAUAUUACGUUGU | -3.23 ± 0.2 | -2.81 ± 0.2 |
| UUGCAGCAAUAUUACGUUUA | -1.31 ± 0.096 | -1.02 ± 0.088 |

| Sequence | self-splicing fitness (ln) (30 °C) | self-splicing fitness (ln) (37 °C) |
| --- | --- | --- |
| UUGGAGCAAUAUUACGAAGU | -3.34 ± 0.37 | 0.521 ± 0.31 |
| UUGGAGCAAUAUUACGACGU | -1.85 ± 0.48 | – |
| UUGGAGCAAUAUUACGAGAA | – | -1.78 ± 0.44 |
| UUGGAGCAAUAUUACGAGGC | -3.52 ± 0.4 | – |
| UUGGAGCAAUAUUACGAGUC | – | -3.03 ± 0.43 |
| UUGGAGCAAUAUUACGAUCA | 0.364 ± 0.35 | -0.451 ± 0.45 |
| UUGGAGCAAUAUUACGAUGA | -0.635 ± 0.11 | -0.543 ± 0.11 |
| UUGGAGCAAUAUUACGAUGU | -1.71 ± 0.44 | -1.83 ± 0.35 |
| UUGGAGCAAUAUUACGCACG | -1.33 ± 0.17 | -1.92 ± 0.29 |
| UUGGAGCAAUAUUACGCCCG | -1.94 ± 0.45 | – |
| UUGGAGCAAUAUUACGCGGA | – | -1.08 ± 0.36 |
| UUGGAGCAAUAUUACGCUUG | -2.69 ± 0.3 | -1.25 ± 0.27 |
| UUGGAGCAAUAUUACGGCUG | -2.22 ± 0.28 | – |
| UUGGAGCAAUAUUACGGUCA | -1.21 ± 0.16 | -2.65 ± 0.23 |
| UUGGAGCAAUAUUACGGUCG | -2.36 ± 0.28 | – |
| UUGGAGCAAUAUUACGUAAU | -3.28 ± 0.19 | -2.38 ± 0.31 |
| UUGGAGCAAUAUUACGUAUG | -3.25 ± 0.36 | -1.36 ± 0.37 |
| UUGGAGCAAUAUUACGUCAG | -2.63 ± 0.26 | -0.954 ± 0.2 |
| UUGGAGCAAUAUUACGUUCU | – | -3.09 ± 0.27 |
| UUGUAGCAAUAUUACGAAGG | – | -1.9 ± 0.47 |
| UUGUAGCAAUAUUACGACAU | -0.918 ± 0.015 | -0.322 ± 0.034 |
| UUGUAGCAAUAUUACGAUGG | -1.53 ± 0.16 | -0.75 ± 0.2 |
| UUGUAGCAAUAUUACGCACA | -0.174 ± 0.17 | -0.658 ± 0.22 |
| UUGUAGCAAUAUUACGCAGU | – | -2.1 ± 0.3 |
| UUGUAGCAAUAUUACGCCAG | -0.515 ± 0.14 | -0.137 ± 0.2 |
| UUGUAGCAAUAUUACGCUCG | -0.29 ± 0.14 | -0.456 ± 0.25 |
